Legend:
[1] = test system: SW620 cells (Trop-2 non-expressing); experiment: Cytotoxicity of ADCs (CellTiter-Glo), SW620; format: cell-based; conditions: Table 13; SW620, Trop2 expression −; 96 hours; concentration of total Ab
Procedure: Target expressing (A431, BxPC3, CAPAN-2 and Colo205) or non-expressing (SW620) cells were seeded on white walled clear bottom plates at 2000 cells/well for 24 hours before treatment. Cells were treated with 4 fold serially diluted antibody-drug conjugates in triplicates. Cell viability was determined by CellTiter-Glo® Luminescent Cell Viability Assay 96 (Promega, Madison Wis.) 96 hours after treatment. Relative cell viability was determined as percentage of untreated control. IC50 was calculated by Prism software.
2-methylalanyl-N-[(3R,4S,5S)-3-methoxy-1-{(2S)-2-[(1R,2R)-1-methoxy-2-methyl-3-oxo-3-{[(1S)-2-phenyl-1-(1,3-thiazol-2-yl)ethyl]amino}propyl]pyrrolidin-1-yl}-5-methyl-1-oxoheptan-4-yl]-N-methyl-L-valinamide is a novel auristatin, as described in U.S. Application Nos. 61/561,255 and 61/676,423. Method of conjugating Trop-2 antibodies using transglutaminase tags is described in Example 9. Target expressing or non-expressing (SW620) cells were seeded on white walled clear bottom plates at 2000 (A431, BxPC3, NCI-H292, NCI-H1650, MDA-MB-468 and SW620), 2500 (Calu-3) or 3000 (OVCAR3 and SKBR3) cells per well for 24 hours before treatment. Cells were treated with 4 fold serially diluted antibody-drug conjugates in triplicates. Cell viability was determined by CellTiter-Glo® Luminescent Cell Viability Assay 96 (Promega, Madison, Wis.) 96 hours after treatment. Relative cell viability was determined as percentage of untreated control. IC50 was calculated by GraphPad Prism 5 software and expressed as concentration (nM) of total Ab.

BxPC3 xenograft = experiment: In vivo efficacy of humanized Trop-2 ADCs, pancreatic tumor BxPC3 xenograft model; design: species or system CB17/SCID mice; conditions: single dose, tail vein; FIGS. 9A-9C
Procedure: In vivo efficacy studies of Trop-2 ADCs were performed with target-expressing BxPC3 xenograft model. Two million BxPC3 pancreatic cancer cells were implanted subcutaneously into 5-8 weeks old CB17/SCID mice until the tumor sizes reached between 300-400 mm^3. […] Tumor volume was measured once a week by a Caliper device and calculated with the following formula: Tumor volume=(length×width^2)/2. Studies were terminated before their tumor volumes reached 2000 mm^3.

Colo205 xenograft = experiment: In vivo efficacy of Trop-2 ADCs, colorectal tumor Colo205 xenograft model; design: species or system nu/nu mice; conditions: single dose of 6 mg/kg, tail vein; FIG. 10
Procedure: In vivo efficacy study of Trop-2 ADCs was performed with target-expressing colo205 xenograft model. Three millions of colo205 colon cancer cells were implanted subcutaneously into 5-8 weeks old nu/nu mice until the tumor sizes reached ˜300 mm^3. […] Tumor volume is measured once a week by a Caliper device and calculated with the following formula: Tumor volume=(length×width^2)/2. Studies were terminated before their tumor volumes reached 2000 mm^3.

[2] = test system: ovarian cancer patient derived xenograft (PDX Ova196756); experiment: In vivo efficacy of Trop-2 ADC, ovarian PDX Ova196756; design: species or system CB17/SCID mice; conditions: single dose, […] and 1.5 mg/kg, tail vein; FIG. 11
Procedure: This tumor sample was derived from surgical specimen and propagated in NSG mice (Jackson Laboratories, Bar Harbor, Me.). For efficacy studies, approximately 1-2 mm^3 of tumor fragments were implanted subcutaneously into the lateral flanks of CB17/SCID mice. […] Tumor volume was measured once a week by a caliper device and calculated with the following formula: Tumor volume=(length×width^2)/2. Studies were terminated before their tumor volumes reached 2000 mm^3.

[3] = test system: pancreatic cancer patient derived xenograft (PDX Pan0146); experiment: In vivo efficacy of Trop-2 ADC, pancreatic PDX Pan0146
Procedure: In vivo efficacy studies of Trop-2 ADC using humanized anti-Trop-2 antibody (h7E6SVG) conjugated with TG6-vc0101 were performed with target-expressing pancreatic cancer patient derived xenograft model (PDX Pan0146) from Jackson Laboratories (Bar Harbor, Me.). For efficacy studies, 1-2 mm^3 of tumor fragments were implanted subcutaneously into the lateral flanks of the animals. […] Gemcitabine was given at 75 mg/kg twice weekly for a total of 6 doses. […] Gemcitabine was given once weekly at 75 mg/kg for 4 doses. Tumor volume was measured once a week by a Caliper device and calculated with the following formula: Tumor volume=(length×width^2)/2. Studies were terminated before their tumor volumes reached 2000 mm^3.

huTrop-2 = molecular target: T1, huTrop-2 (Homo sapiens, UniProt P09758); experiment: Biacore SPR affinity of anti-Trop-2 mouse antibodies; format: binding; conditions: mouse IgG captured by anti-mouse IgG; monomeric Trop-2 extracellular domain as analyte
T1 construct: Monomeric Trop-2 extracellular domain prepared from papain digestion of Trop-2-Fc fusion protein; Fc (cleaved yes); made in house
T1 sequence (P09758 27-274 limits assumed): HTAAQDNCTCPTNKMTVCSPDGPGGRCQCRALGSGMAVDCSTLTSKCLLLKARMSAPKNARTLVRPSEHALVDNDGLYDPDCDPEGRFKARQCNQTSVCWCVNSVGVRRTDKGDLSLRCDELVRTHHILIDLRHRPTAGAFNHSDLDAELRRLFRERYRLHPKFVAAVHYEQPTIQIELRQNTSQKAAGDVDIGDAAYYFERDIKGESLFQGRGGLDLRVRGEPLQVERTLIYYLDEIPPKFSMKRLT
Procedure: The affinities of anti-Trop-2 mouse antibodies generated from hybridomas were measured on a surface plasmon resonance Biacore™ 2000 or 3000 biosensor equipped with a research-grade CM5 sensor chip (Biacore™ AB, Uppsala, Sweden—now GE Healthcare). Anti-mouse IgG was first amine coupled to the CM5 sensor surface. Various anti-Trop-2 mouse IgGs were then captured by anti-mouse IgG. Monomeric Trop-2 extracellular domain prepared from papain digestion of Trop-2-Fc fusion protein was then injected as the analyte at 3 fold dilution series. […]

[4] = test system: human Trop-2 domains swapped with Trop-1 (EpCAM) or mouse Trop-2 equivalent regions; experiment: Domain mapping by domain swapping (Biacore); format: binding; conditions: for Binding to Trop-2 domain hybrid, domain 1: domain 1 replaced; for Binding to Trop-2 domain hybrid, domain 2: domain 2 replaced; for Binding to Trop-2 domain hybrid, domain 3: domain 3 replaced; for Binding to Trop-2 domain hybrid, domain 4: domain 4 replaced
Procedure: Domain mapping was done by swapping the Trop-2 extracellular domains with either Trop-1 (EpCAM) or mouse Trop-2 equivalent regions. […] These hybrid proteins were expressed as human Fc fusion proteins in 293F cells. Binding of anti-Trop-2 antibodies to these domain hybrids were determined by Biacore. […] Table 5. Definition of different domains of Trop-2 can be found, e.g., in Chong et al., J. Biol. Chem. 276(8):5804-13, 2001.

human Trop-1 = molecular target: T2, human Trop-1 (Homo sapiens, UniProt P16422, M115T); experiment: Binding to human Trop-1; conditions: recombinant mouse IgG2a
T2 sequence (P16422 24-314 M115T): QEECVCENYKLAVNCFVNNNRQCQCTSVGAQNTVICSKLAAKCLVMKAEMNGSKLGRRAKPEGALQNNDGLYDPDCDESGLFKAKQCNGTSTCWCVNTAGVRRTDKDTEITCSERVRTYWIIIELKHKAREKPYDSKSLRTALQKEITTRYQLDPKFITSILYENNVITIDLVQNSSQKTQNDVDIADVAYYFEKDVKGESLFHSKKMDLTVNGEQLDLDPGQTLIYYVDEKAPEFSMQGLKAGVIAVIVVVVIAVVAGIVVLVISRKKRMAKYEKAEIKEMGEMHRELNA

mouse Trop-2 = molecular target: T3, mouse Trop-2 (Mus musculus, UniProt Q8BGV3); experiment: Binding to mouse Trop-2; conditions: recombinant mouse IgG2a
T3 sequence (Q8BGV3 25-317): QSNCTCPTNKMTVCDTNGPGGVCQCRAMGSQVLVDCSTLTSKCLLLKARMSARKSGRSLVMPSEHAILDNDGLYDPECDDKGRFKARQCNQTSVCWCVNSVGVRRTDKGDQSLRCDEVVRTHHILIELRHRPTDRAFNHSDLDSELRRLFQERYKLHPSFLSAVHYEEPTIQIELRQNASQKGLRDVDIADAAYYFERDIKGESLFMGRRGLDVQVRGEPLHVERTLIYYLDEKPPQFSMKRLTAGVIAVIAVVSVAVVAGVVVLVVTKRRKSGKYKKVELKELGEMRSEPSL

A431 xenograft = experiment: In vivo efficacy of anti-Trop-2 mouse IgGs, A431 xenograft model; design: species or system nu/nu mice; conditions: 20 mg/kg once a week, 3 doses
Procedure: In vivo efficacy studies of anti-Trop-2 mouse IgGs were performed with target-expressing A431 xenograft model. Two million A431 epidermoid cancer cells were implanted subcutaneously into 5-8 weeks old nu/nu mice until the tumor sizes reached around 100 mm^3. Animals were randomized by tumor sizes and dosing was done through bolus tail vein injection. Anti-Trop-2 antibodies were expressed as recombinant mouse IgG2a antibodies from 293F transient expression. […] Tumor volume was measured twice a week by a caliper device and calculated with the following formula: Tumor volume=(length×width^2)/2. Studies were terminated before tumor volumes reached 2000 mm^3. TGI (% tumor growth inhibition) was determined as [1-tumor sizes (treatment group)/tumor size (control group)]×100.

SW620 (Trop-2 −) cells = experiment: Flow cytometry binding, SW620 cells; format: cell-based; conditions: Table 11, 300,000 cells, 1 ug antibody
Procedure: For A431 cell staining, 200,000 cells were incubated with 0.5 ug antibody in 100 uL binding buffer (PBS (Phosphate Buffered Saline)+0.5% BSA (Bovine Serum Albumin)), followed by incubation with Dylight488-conjugated goat anti-human (Fab′)2-specific secondary antibody from Jackson immunoresearch Laboratories (West Grove, Pa.). For Colo205 and SW620 cells, 300,000 cells were used with 1 ug of primary antibody, followed by AlexaFluor 647 anti-human (Fab′)2-specific secondary antibody from Jackson immunoresearch Laboratories (West Grove, Pa.).
Similar to Example 7a), binding of chimeric mouse and humanized anti-Trop-2 6G11 antibodies (expressed in human IgG1 subtype) were assessed on Trop-2 expressing (A431 and Colo205) and non-expressing (SW620) cells by flow cytometry. 300,000 cells were used with 1 ug of primary antibody, followed by AlexaFluor 647 anti-human (Fab′)2-specific secondary antibody.

B1: h7E6SVG-TG6-vc0101: h7E6SVG with heavy chain C-terminal TG6 tag (SEQ ID NO: 79) conjugated with AcLys-vc-PABC-0101 (conjugate)
VH: QVQLQESGPGLVKPSETLSLTCTVSGGSISSYGVHWIRQPPGKGLEWIGVIWTSGVTDYNSALMGRVTISVDTSKNQFSLKLSSVTAADTAVYYCARDGDYDRYTMDYWGQGTLVTVSS
VL: DIVMTQSPDSLAVSLGERATINCRASKSVSTSGYSYMHWYQQKPGQPPKLLIYLASNLESGVPDRFSGSGSGTDFTLTISSLQAEDVAVYYCQHSRELPYTFGQGTKLEIK
IC50 [1]: 156 nM | tumor response, BxPC3 xenograft (BxPC3 xenograft): tumor regression | tumor response, Colo205 xenograft (Colo205 xenograft): tumor regression | tumor response, ovarian PDX Ova196756 [2]: tumor regression | tumor response on continuous dosing, Pan0146 PDX ([3]; […] weekly x4, 1.5 mg/kg bi-weekly x2 or 3.0 mg/kg single dose, FIG. 12B): sustained tumor regression | efficacy to induce tumor regression compared with gemcitabine, Pan0146 PDX ([3]; single dose vs gemcitabine 75 mg/kg twice weekly, 6 doses, FIG. 12A): superior efficacy to gemcitabine

B2: 6G11: anti-Trop-2 mouse antibody, VL SEQ ID NO: 8, VH SEQ ID NO: 9; also used as chimeric human IgG1 (antibody, V domains shown)
VH: QVQLQQPGAELVRPGASVKLSCKASGYTFTSYWINWVKQRPGHGLEWIGNIYPSDSYSNYNQKFKDKATLTVDKSSSTAYMQVSSPTSEDSAVYYCTYGSSFDYWGQGTTVTVSS
VL: DILLTQSPAILSVSPGERVSFSCRASQTIGTSIHWYQQRTNGSPRLLIKYASESISGIPSRFSGSGSGTDFTLSINSVESEDIADYYCQQSNSWPFTFGSGTKLEIK
ka (huTrop-2): 270000 M⁻¹ s⁻¹ | kd (huTrop-2): 0.0086 s⁻¹ | human Trop-2 domains bound ([4]; defined by loss or reduction in binding on domain swapping): domain 1 | Binding to Trop-2 domain hybrid, domain 1 ([4]; domain replacement hTrop1): + | Binding to Trop-2 domain hybrid, domain 2 ([4]; domain replacement hTrop1): − | Binding to Trop-2 domain hybrid, domain 3 ([4]; domain replacement hTrop1): − | Binding to Trop-2 domain hybrid, domain 4 ([4]; domain replacement hTrop1): − | Binding to Trop-2 domain hybrid, domain 1 ([4]; domain replacement mTrop-2): + | Binding to Trop-2 domain hybrid, domain 2 ([4]; domain replacement mTrop-2): − | Binding to Trop-2 domain hybrid, domain 3 ([4]; domain replacement mTrop-2): − | Binding to Trop-2 domain hybrid, domain 4 ([4]; domain replacement mTrop-2): − | binding to human Trop-1 (human Trop-1): do not bind | binding to mouse Trop-2 (mouse Trop-2): do not bind | A431 xenograft tumor growth in vivo (A431 xenograft): inhibit A431 xenograft tumor growth | Mean tumor volume (mm3) on day 27 (A431 xenograft; Table 7C): 444.8 mm3 | TGI (Tumor growth inhibition) (A431 xenograft; Table 7C): 57% | % positive (SW620 (Trop-2 −) cells): 2.5% | MFI (SW620 (Trop-2 −) cells): 134
